In US20230174669A1 (ALIADA THERAPEUTICS, published 2023):
Numbering of substitutions follows the chain as printed.

T1: human CD98hc (human, UniProt P08195 105-529)
T1 construct: Soluble protein flowed over captured tripod mAbs in SPR; also called huCD98hc; human CD98 heavy chain
T1 sequence: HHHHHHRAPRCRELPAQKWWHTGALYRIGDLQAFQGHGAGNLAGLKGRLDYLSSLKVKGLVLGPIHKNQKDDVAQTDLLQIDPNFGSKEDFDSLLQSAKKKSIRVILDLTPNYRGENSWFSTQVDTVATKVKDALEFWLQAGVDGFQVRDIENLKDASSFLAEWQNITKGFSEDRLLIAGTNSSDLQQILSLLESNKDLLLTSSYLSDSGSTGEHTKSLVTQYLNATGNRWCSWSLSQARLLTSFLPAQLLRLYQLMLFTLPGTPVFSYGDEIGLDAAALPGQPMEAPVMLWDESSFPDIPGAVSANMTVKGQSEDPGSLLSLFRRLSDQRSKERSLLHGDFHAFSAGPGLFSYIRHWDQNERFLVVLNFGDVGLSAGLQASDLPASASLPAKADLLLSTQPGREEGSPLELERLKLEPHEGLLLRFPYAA

B1: BBBB1067 (bispecific antibody)
heavy 1: EVQLVESGGGLVKPGGSLRLSCAASGFTFSSYAMSWVRQAPGKGLEWVASISKGGNTYYPDSVKGRFTISRDNAKNSLYLQMNSLRAEDTAVYYCARGWGDYGWFAYWGQVTLVTVSSASTKGPSVFPLAPSSKSTSGGTAALGCLVKDYFPEPVTVSWNSGALTSGVHTFPAVLQSSGLYSLSSVVTVPSSSLGTQTYICNVNHKPSNTKVDKKVEPKSCDKTHTCPPCPAPEAAGGPSVFLFPPKPKDTLYITREPEVTCVVVSVSHEDPEVKFNWYVDGVEVHNAKTKPREEQYNSTYRVVSVLTVLHQDWLNGKEYKCKVSNKALPAPIEKTISKAKGQPREPQVYVYPPSREEMTKNQVSLTCLVKGFYPSDIAVEWESNGQPENNYKTTPPVLDSDGSFALVSKLTVDKSRWQQGNVFSCSVMHEALHNHYTQKSLSLSPGGGAGGAQVQLVESGGGVVQPGRSLRLSCAASGFTFSSYGMHWVRQAPGKGLEWVAIISYDGSNKHYADSVKGRFTISRDNSKNTLYLQMNSLRAEDTAVYYCARAPSSFYFDYWGQGTLVTVSSGTEGKSSGSGSESKSTDIVMTQSPDSLAVSLGERATINCKSSQSVLFSSNNKNYLAWYQQKPGQPPKLLIYWASTRESGVPDRFSGSGSGTDFTLTISSLQAEDVAVYYCQQYYSTPPTFGQGTKVVIK
light: DIQMTQSPSSLSASVGDRVTITCKASQDINRYLNWFQQKPGKAPKTLIYRANRLLDGVPSRFSGSGSGTDFTLTISSLQPEDFATYYCQQYDEFPLTFGQGTKLEIKRTVAAPSVFIFPPSDEQLKSGTASVVCLLNNFYPREAKVQWKVDNALQSGNSQESVTEQDSKDSTYSLSSTLTLSKADYEKHKVYACEVTHQGLSSPVTKSFNRGEC
heavy 2: EVQLVESGGGLVKPGGSLRLSCAASGFTFSSYAMSWVRQAPGKGLEWVASISKGGNTYYPDSVKGRFTISRDNAKNSLYLQMNSLRAEDTAVYYCARGWGDYGWFAYWGQVTLVTVSSASTKGPSVFPLAPSSKSTSGGTAALGCLVKDYFPEPVTVSWNSGALTSGVHTFPAVLQSSGLYSLSSVVTVPSSSLGTQTYICNVNHKPSNTKVDKKVEPKSCDKTHTCPPCPAPEAAGGPSVFLFPPKPKDTLYITREPEVTCVVVSVSHEDPEVKFNWYVDGVEVHNAKTKPREEQYNSTYRVVSVLTVLHQDWLNGKEYKCKVSNKALPAPIEKTISKAKGQPREPQVYVLPPSREEMTKNQVSLLCLVKGFYPSDIAVEWESNGQPENNYLTWPPVLDSDGSFFLYSKLTVDKSRWQQGNVFSCSVMHEALHNHYTQKSLSLSPG
notes: also called tripod mAb Anti-Tau IgG1 AAS YTE with C98hc4
B2: BBBB1070 (bispecific antibody, human IgG1, kappa, L234A L235A)
heavy 1: EVQLVESGGGLVKPGGSLRLSCAASGFTFSSYAMSWVRQAPGKGLEWVASISKGGNTYYPDSVKGRFTISRDNAKNSLYLQMNSLRAEDTAVYYCARGWGDYGWFAYWGQVTLVTVSSASTKGPSVFPLAPSSKSTSGGTAALGCLVKDYFPEPVTVSWNSGALTSGVHTFPAVLQSSGLYSLSSVVTVPSSSLGTQTYICNVNHKPSNTKVDKKVEPKSCDKTHTCPPCPAPEAAGGPSVFLFPPKPKDTLYITREPEVTCVVVSVSHEDPEVKFNWYVDGVEVHNAKTKPREEQYNSTYRVVSVLTVLHQDWLNGKEYKCKVSNKALPAPIEKTISKAKGQPREPQVYVYPPSREEMTKNQVSLTCLVKGFYPSDIAVEWESNGQPENNYKTTPPVLDSDGSFALVSKLTVDKSRWQQGNVFSCSVMHEALHNHYTQKSLSLSPGGGAGGAQVQLQESGPGLVKPSETLSLTCTVSGGSISSSYWSWIRQPPGKGLEWIGYIYNSGSTNYNPSLKSRVTISVDTSKNQFSLKLSSVTAADTAVYYCARETYYFDYWGQGTLVTVSSGTEGKSSGSGSESKSTDIVMTQSQKFMSTSVGDRVSVTCKASQNVGINVAWYQKKPGQPPKALIYSAAYRYSGVPDRFTGSGSGTDFTLTISNVQSEDLAEYFCQQYNSYPLTFGSGTKLEIK
light: B1 light
heavy 2: B1 heavy 2
notes: also called tripod mAb Anti-Tau IgG1 AAS YTE with C98hc5
B3: BBBB1061 (bispecific antibody, human IgG1, kappa, L234A L235A)
heavy 1: EVQLVESGGGLVKPGGSLRLSCAASGFTFSSYAMSWVRQAPGKGLEWVASISKGGNTYYPDSVKGRFTISRDNAKNSLYLQMNSLRAEDTAVYYCARGWGDYGWFAYWGQVTLVTVSSASTKGPSVFPLAPSSKSTSGGTAALGCLVKDYFPEPVTVSWNSGALTSGVHTFPAVLQSSGLYSLSSVVTVPSSSLGTQTYICNVNHKPSNTKVDKKVEPKSCDKTHTCPPCPAPEAAGGPSVFLFPPKPKDTLYITREPEVTCVVVSVSHEDPEVKFNWYVDGVEVHNAKTKPREEQYNSTYRVVSVLTVLHQDWLNGKEYKCKVSNKALPAPIEKTISKAKGQPREPQVYVYPPSREEMTKNQVSLTCLVKGFYPSDIAVEWESNGQPENNYKTTPPVLDSDGSFALVSKLTVDKSRWQQGNVFSCSVMHEALHNHYTQKSLSLSPGGGAGGAQVQLVESGGGLVQAGGSLRLSCAASGRAFSSNGMGWFRQAPGKEREFVATISCSGTSTYYADSVKGRFTISRDNAKNTVYLQMNSLKPEDTAVYFCAADTRHCMGYTKDEGYAYWGQGTQVTVSS
light: B1 light
heavy 2: B1 heavy 2
notes: also called tripod mAb Anti-Tau IgG1 AAS YTE with C98hc2
B4: BBBB1065 (bispecific antibody)
heavy 1: B1 heavy 1 with A235L, A236L, Y253M, T255S, E257T, S266D
light: B1 light
heavy 2: B1 heavy 2 with A235L, A236L, Y253M, T255S, E257T, S266D
notes: also called tripod mAb Anti-Tau IgG1 with C98hc4
B5: BBBB1202 (bispecific antibody)
heavy 1: B1 heavy 1 with S555H
light: B1 light
heavy 2: B1 heavy 2
B6: BBBB1201 (bispecific antibody)
heavy 1: B1 heavy 1 with S555A
light: B1 light
heavy 2: B1 heavy 2

How the values were obtained:
human CD98hc [1] = molecular target: T1, human CD98hc; test: SPR ProteOn, anti-Tau tripod mAb captured by anti-Fc, huCD98hc flowed
human CD98hc [2] = molecular target: T1, human CD98hc; test: SPR ProteOn, mAb captured by anti-Fc, huCD98hc flowed, 1:1 model
Experimental: An Fc capture surface was generated by coupling anti-IgG Fc mAb (Jackson ImmunoResearch) to a GLC chip (BioRad) using the amine-coupling chemistry (BioRad).
The chip surface was regenerated with two 18 second pulses of 100 mM H3PO4 (Sigma) at 100 μL/min. The collected data were processed using ProteOn Manager software V3.1.0.6 (BioRad). First, the data was corrected for background using inter-spots. Then, double reference subtraction of the data was performed by using the buffer injection for analyte injections. The kinetic analysis of the data was performed using a Langmuir 1:1 binding model.

Row | Binder | Kd (human CD98hc [1]) | koff (human CD98hc [1]) | kon (human CD98hc [1]) | Kd (human CD98hc [2]) | koff (human CD98hc [2]) | kon (human CD98hc [2])
1 | B1 | 3.15 nM | 0.00138 s⁻¹ | 439000 M⁻¹ s⁻¹ |  |  | 
2 | B2 | 118 nM | 0.00648 s⁻¹ | 55700 M⁻¹ s⁻¹ |  |  | 
3 | B3 | 1.46 nM | 0.00135 s⁻¹ | 935000 M⁻¹ s⁻¹ |  |  | 
4 | B4 | 2.96 nM | 0.00139 s⁻¹ | 470000 M⁻¹ s⁻¹ |  |  | 
5 | B5 |  |  |  | 52.9 nM | 0.00882 s⁻¹ | 167000 M⁻¹ s⁻¹
6 | B6 |  |  |  | 16.9 nM | 0.006 s⁻¹ | 357000 M⁻¹ s⁻¹
